Experiment [1] addresses HLA-A*02 tetramers with the 9 similar peptides (SimPeps, SEQ ID NOs: 59-67). Put plainly: yeast display, 9 similar peptides, 10 nM HLA-A*02 tetramer.
For experiment [2] the target is unchanged. Description: yeast display, flow cytometry, SimPep tetramer mix, 25 nM each.

B1: scTCR CL-21753 (TCR)
chain: EDVEQSSFLSVREGDSAVINCTYTDASSTYFYWYKQEPGAGLQLLTYIFSNMDMKQDQRLTVLLNKKDKHLSLRIADTQTGDSAIYFCAVKDNARLMFGDGTQLVVKPGGGGSGGGGSGGGGSGGGGSGGGGSAVISQKPSRDIVQRGNSVTIQCQVDRPVTMMFWYRQQPGQSLTLIATAYDEGSATYESGFVIDKFPISRPNLTFSTLTVSNMSPEDSSIYLCSVLGAYGYTFGSGTRLTVV
The molecule B1 yielded a similar peptide binding, % positive cells in experiment [1] of 0%.

B2: scTCR R76P1E1S with matured CDRb1 RPVTM (TCR)
chain: EDVEQSSFLSVREGDSAVINCTYTDSSSTYFYWYKQEPGAGLQLLTYIFSNMDMKQDQRLTVLLNKKDKHLSLRIADTQTGDSAIYFCAVKDNARLMFGDGTQLVVKPGGGGSGGGGSGGGGSGGGGSGGGGSGAVISQKPSRDIVQRGNSVTIQCQVDRPVTMMFWYRQQPGQSLTLIATANQGSEATYESGFVIDKFPISRPNLTFSTLTVSNMSPEDSSIYLCSVLGAYGYTFGSGTRLTVV
B2: the yeast cells stained positive in experiment [2] was determined as 0%.
